According to US20200157519A1 (IMMUNWORK, published 2020):

Biological target: T1, human fibrinogen (human, UniProt P02671 20-629; P02675 31-491; P02679 27-437, limits assumed)
T1 construct: Bought protein, used as the negative control antigen; also called fibrinogen from human (Sigma)
T1 sequence (looked up) 1: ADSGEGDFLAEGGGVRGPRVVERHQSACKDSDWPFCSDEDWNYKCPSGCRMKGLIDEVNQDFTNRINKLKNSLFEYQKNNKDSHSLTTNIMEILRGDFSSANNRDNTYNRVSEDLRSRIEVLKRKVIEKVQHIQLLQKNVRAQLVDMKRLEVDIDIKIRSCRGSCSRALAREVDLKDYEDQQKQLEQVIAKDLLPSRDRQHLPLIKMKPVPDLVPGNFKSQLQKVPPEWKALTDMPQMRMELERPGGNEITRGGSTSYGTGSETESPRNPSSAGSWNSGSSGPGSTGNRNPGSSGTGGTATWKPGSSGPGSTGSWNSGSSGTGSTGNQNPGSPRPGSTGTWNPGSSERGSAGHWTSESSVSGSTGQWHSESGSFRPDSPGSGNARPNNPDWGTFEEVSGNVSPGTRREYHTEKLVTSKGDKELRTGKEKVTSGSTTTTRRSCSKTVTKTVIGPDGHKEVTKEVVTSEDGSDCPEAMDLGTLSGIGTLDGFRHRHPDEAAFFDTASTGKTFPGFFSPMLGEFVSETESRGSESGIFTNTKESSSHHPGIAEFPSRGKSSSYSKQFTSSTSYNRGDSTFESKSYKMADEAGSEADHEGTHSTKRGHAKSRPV
T1 sequence (looked up) 2: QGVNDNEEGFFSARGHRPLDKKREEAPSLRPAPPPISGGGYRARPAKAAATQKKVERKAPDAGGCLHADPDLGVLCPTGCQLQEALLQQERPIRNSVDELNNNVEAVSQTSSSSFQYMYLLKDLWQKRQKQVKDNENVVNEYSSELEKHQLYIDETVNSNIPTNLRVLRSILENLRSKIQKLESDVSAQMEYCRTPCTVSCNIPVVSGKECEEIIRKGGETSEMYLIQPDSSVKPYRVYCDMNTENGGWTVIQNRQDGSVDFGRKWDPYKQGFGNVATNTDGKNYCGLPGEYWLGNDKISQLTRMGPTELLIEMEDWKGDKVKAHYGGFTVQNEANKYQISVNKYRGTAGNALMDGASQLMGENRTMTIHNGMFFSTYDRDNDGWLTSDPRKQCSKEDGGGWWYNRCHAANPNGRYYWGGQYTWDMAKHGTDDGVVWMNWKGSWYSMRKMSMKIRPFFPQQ
T1 sequence (looked up) 3: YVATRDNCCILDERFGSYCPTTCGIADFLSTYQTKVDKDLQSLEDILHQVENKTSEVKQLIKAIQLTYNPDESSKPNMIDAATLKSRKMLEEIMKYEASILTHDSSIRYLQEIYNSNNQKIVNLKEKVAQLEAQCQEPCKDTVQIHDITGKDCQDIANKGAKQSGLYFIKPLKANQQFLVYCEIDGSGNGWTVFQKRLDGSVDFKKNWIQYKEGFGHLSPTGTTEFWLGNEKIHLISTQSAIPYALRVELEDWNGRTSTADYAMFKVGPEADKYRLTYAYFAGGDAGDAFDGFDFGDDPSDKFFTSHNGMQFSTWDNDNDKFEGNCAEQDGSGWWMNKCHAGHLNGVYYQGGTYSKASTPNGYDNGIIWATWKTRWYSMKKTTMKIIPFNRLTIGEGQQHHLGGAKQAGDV
Assay: ELISA, HRP-conjugated polyclonal rabbit anti-reteplase antibody

B1: recombinant (3D5 VL-(G4S)3-VH scFv α fibrin)-reteplase polypeptide (other)
chain: DIQMTQSPSSLSASVGDRVTITCRASQDVSNNVAWYQQKPGKAPKLLIFWSPWLYSGVPSRFSGSGSGTDFTLTISSLQPEDFATYYCQQGWDSPVTFGQGTKVEIKRGSTSGSGKPGSGEGSTKGEVQLVESGGGLVQPGGSLRLSCAASGFTISDFGIHWVRQAPGKGLEWVASIWPSGGYTYYADSVKGRFTISADTSKNTAYLQMNSLRAEDTAVYYCARSWFYSWYDYWGQGTLVTVSSASGGGGSGGGGSGGGGSSYQGNSDCYFGNGSAYRGTHSLTESGASCLPWNSMILIGKVYTAQNPSAQALGLGKHNYCRNPDGDAKPWCHVLKNRRLTWEYCDVPSCSTCGLRQYSQPQFRIKGGLFADIASHPWQAAIFAKHRRSPGERFLCGGILISSCWILSAAHCFQERFPPHHLTVILGRTYRVVPGEEEQKFEVEKYIVHKEFDDDTYDNDIALLQLKSDSSRCAQESSVVRTVCLPPADLQLPDWTECELSGYGKHEALSPFYSERLKEAHVRLYPSSRCTSQHLLNRTVTDNMLCAGDTRSGGPQANLHDACQGDSGGPLVCLNDGRMTLVGIISWGLGCGQKDVPGVYTKVTNYLDWIRDNMRPA
notes: Fusion: 3D5 scFv (VL, flexible linker, VH) at the N-terminus of reteplase through a flexible linker; also called (3D5 scFv)-reteplase
B1: no binding.
